Read-outs that look alike come from different tables or passages of the source.

For experiment [1], the target named is T1, cynomolgus CD45 on live cells (primary cynomolgus PBMCs) (cynomolgus monkey).
T1 construct: Endogenous CD45 on PBMCs; also called cyno CD45; Cyno PBMC
T1 chain: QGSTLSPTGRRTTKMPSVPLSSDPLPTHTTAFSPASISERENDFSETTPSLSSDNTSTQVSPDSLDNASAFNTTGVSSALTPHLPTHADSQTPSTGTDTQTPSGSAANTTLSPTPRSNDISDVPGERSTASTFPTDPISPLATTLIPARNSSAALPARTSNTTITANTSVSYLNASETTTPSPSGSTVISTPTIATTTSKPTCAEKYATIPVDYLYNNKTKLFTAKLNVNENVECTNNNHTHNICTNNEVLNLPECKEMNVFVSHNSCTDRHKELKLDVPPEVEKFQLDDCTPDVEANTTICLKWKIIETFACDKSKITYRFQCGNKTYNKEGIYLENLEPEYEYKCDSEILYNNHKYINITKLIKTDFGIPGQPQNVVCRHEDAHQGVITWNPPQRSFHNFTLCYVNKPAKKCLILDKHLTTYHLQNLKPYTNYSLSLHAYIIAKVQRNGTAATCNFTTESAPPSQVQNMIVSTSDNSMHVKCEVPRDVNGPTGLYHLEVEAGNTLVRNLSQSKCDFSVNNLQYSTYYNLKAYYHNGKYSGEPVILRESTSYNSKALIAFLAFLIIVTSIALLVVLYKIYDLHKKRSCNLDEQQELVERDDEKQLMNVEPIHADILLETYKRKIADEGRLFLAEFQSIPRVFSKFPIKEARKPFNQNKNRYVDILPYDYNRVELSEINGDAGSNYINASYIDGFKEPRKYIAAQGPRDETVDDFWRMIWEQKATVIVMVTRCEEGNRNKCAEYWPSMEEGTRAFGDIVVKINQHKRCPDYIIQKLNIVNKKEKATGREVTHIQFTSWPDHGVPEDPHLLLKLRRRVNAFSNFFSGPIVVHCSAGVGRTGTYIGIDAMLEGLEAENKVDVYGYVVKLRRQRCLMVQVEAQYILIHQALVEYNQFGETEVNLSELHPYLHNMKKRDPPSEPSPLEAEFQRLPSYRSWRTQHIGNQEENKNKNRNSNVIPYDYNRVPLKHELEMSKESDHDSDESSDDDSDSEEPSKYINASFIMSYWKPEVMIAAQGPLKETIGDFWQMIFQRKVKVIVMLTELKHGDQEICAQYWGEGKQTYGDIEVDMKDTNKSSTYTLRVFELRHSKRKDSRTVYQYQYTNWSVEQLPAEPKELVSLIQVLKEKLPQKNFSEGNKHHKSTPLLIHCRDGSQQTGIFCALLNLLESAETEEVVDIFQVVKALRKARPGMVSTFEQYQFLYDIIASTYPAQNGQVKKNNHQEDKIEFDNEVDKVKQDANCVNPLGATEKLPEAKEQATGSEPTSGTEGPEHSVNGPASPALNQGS
Nature of the experiment: flow cytometry on PBMCs; cyno EC50 against human EC50. (In general: In flow cytometry, cells or beads pass a laser one at a time.)

Experiment [2] deals with T1, cynomolgus CD45 on live cells (primary …). The experiment is described as above.
The target in experiment [3] is T2, human CD45 on live cells (REH-1 cells, primary human PBMCs) (human, UniProt P08575 26-1306).
T2 construct: Endogenous CD45
T2 sequence: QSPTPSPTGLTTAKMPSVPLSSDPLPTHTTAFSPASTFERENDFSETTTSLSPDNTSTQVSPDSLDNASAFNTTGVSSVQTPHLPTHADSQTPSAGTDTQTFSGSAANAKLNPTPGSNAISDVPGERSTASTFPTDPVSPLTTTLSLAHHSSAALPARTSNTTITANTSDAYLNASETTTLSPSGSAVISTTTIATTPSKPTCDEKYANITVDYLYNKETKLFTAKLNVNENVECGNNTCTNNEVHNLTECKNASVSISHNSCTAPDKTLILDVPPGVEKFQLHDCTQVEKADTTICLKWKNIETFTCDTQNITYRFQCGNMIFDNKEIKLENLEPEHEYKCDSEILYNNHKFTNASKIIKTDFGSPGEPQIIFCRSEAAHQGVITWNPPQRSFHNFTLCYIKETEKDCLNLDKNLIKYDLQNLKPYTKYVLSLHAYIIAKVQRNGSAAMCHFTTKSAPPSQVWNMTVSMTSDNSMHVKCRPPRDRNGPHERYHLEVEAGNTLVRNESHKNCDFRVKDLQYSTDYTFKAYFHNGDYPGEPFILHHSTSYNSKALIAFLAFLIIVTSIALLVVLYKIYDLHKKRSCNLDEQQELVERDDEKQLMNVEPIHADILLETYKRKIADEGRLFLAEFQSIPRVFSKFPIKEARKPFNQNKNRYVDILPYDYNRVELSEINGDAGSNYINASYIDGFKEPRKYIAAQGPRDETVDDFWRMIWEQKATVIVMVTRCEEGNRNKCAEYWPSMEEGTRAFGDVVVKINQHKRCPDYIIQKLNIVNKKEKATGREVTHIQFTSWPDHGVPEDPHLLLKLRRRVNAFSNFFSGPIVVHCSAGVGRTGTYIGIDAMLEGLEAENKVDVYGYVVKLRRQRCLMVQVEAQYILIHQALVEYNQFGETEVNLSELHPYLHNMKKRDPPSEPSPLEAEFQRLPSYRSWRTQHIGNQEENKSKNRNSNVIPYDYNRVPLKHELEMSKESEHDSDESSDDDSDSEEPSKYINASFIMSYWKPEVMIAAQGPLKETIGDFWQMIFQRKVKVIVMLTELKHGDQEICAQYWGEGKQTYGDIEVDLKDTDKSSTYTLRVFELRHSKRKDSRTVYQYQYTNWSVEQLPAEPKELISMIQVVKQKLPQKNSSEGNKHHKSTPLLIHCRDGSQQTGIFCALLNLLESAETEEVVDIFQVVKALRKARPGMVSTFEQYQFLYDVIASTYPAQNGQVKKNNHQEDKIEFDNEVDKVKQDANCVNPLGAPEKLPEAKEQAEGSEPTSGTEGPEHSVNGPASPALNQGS
Description: flow cytometry on human PBMCs, overnight 37 C, AF488 anti-human IgG.

The target in experiment [4] is T2, human CD45 on live cells (REH-1 cells, …). The experiment is described as above. The source holds these as a separate data set.
In experiment [5] the target is T3, purified human CD45 ectodomain (human CD45RABC antigen) (human, UniProt P08575 26-577).
T3 construct: also called hCD45
T3 sequence: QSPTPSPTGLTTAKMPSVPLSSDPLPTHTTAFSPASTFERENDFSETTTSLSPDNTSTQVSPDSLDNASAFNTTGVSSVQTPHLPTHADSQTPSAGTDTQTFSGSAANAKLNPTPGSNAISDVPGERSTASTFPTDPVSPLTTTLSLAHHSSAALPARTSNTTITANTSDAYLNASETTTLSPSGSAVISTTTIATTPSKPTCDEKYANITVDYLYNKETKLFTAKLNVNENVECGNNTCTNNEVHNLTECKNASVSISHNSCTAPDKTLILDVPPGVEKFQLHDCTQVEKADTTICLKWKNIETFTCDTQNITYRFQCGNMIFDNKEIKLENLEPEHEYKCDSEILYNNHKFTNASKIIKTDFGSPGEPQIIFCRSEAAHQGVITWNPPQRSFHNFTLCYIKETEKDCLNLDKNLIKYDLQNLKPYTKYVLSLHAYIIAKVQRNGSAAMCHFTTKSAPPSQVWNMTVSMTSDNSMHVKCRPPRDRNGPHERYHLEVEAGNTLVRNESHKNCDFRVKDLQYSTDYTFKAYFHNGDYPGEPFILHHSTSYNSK
Nature of the experiment: BLI (Octet Red96), Table 11; the sentence does not name the species of CD45. (BLI is a label-free optical method that tracks binding on a fibre tip over time.)

Experiment [6] deals with T1, cynomolgus CD45 on live cells (primary …). Nature of the experiment: flow cytometry on cynomolgus PBMCs, overnight 37 C, AF488 anti-human IgG.
Experiment [7] has the same target. The description is as above.
Experiment [8] deals with T3, purified human CD45 ectodomain (human …). Nature of the experiment: BLI (Octet Red96), antibody on anti-human Fc sensor, 100 nM human CD45 ectodomain, 1:1 fit.

B1: Antibody C (AbC) (antibody, IgG1, V domains shown)
VH: EVQLVESGGGLVQPGGSLRLSCAASGFTFNNYWMTWVRQAPGKGLEWVSSISSSGGSIYYPDSVKDRFTISRDNAKNSLYLQMNSLRAEDMAVYYCARLYYYDGGGDAWGQGTLVTVSS
VL: GIQMTQSPSSLSASVGDRVTITCKASQDINKYLDWYQQKPGKAPKLLIYNTNNLHTGIPSRFSGSGSGTDYTLTISSLQPEDFATYYCLQHISRWTFGGGTKVEIK
notes: also called humanized clone AbC
Regarding B1, in experiment [1], the “Fold Cyno vs Human (EC50)” value turned out to be 1.7 fold. Further, the “Fold Cyno v/s Human (EC50)” value in experiment [2] stood at 2.1 fold. The half-maximal effective concentration (EC50) in experiment [3] worked out at 0.51 nM; in experiment [4], 0.64 nM; in experiment [6], 0.88 nM; in experiment [7] it was 1.34 nM. The “fold improved affinity over the parent clone C” value in experiment [5] was more than 4 fold. Further, binding in experiment [8] was put at a Kd of 2.93 nM. For the same molecule, the koff in experiment [8] worked out at 0.000149 s⁻¹. In addition, the kon in experiment [8] turned out to be 50800 M⁻¹ s⁻¹.

A word on the EC50: it is the concentration needed to bring the measured effect to its halfway point. Low values mean a more potent agent, high ones a less potent agent. The Kd is the concentration at which binding is half-saturated. A low value points to higher affinity. As usually defined, the koff is a measure of how fast the partners let go of each other. High values mean fast dissociation, low ones slow dissociation. Broadly, the kon is the second-order rate constant of association. Read a low kon as slow association.

Source of the values: US20220267441A1 (VOR BIOPHARMA, published 2022).
